# Laboratory results published in paper PMC3958441, “Isl1 and Pou4f2 Form a Complex to Regulate Target Genes in Developing Retinal Ganglion Cells” (PLoS ONE, 2014).
# T1: Isl1D3 (mouse, UniProt P61372 170-349)
# T1 sequence: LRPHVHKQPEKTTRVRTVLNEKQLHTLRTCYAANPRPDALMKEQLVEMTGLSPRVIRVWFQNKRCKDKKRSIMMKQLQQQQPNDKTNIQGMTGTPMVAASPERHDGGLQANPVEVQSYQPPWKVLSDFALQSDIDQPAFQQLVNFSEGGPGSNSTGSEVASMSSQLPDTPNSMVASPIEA
# T2: Isl1 (mouse, UniProt P61372 1-349)
# T2 sequence: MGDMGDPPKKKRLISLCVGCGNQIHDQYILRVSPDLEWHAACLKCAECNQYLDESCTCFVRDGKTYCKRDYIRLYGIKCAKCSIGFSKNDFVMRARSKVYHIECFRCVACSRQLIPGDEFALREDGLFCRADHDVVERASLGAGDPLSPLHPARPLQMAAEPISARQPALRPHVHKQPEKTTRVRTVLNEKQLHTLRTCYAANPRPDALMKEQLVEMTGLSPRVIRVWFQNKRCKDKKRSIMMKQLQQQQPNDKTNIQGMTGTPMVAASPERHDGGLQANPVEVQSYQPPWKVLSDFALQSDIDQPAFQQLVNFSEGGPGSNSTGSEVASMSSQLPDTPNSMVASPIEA
# T3: Isl1D5 (mouse, UniProt P61372 74-349)
# T3 sequence: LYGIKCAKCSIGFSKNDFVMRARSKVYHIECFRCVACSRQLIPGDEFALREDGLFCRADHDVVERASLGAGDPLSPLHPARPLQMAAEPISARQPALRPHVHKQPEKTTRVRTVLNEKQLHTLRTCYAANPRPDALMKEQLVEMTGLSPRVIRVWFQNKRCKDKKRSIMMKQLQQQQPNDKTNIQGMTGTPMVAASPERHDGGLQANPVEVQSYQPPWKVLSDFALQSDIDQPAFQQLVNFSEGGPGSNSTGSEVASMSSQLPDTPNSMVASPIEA
# T4: Pou4f2D2 (mouse, UniProt Q63934 1-330)
# T4 sequence: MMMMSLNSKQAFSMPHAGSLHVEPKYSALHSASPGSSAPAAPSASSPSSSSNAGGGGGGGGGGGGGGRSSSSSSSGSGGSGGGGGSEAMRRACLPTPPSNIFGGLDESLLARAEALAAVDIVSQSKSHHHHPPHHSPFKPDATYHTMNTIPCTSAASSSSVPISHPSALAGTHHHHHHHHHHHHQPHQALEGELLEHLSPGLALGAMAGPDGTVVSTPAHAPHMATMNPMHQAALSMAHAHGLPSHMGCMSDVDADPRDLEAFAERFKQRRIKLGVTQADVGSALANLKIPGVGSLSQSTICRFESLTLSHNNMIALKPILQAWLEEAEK
# Columns and labels:
# Assay in all cases: EMSA; EMSA: 20 mM Tris-HCl pH 7.5, 50 mM NaCl, 10 mM DTT, 1 mM EDTA, 5% glycerol, 200 ng dI/dC, 200 ng each protein in 20 ul, 4 C, 30 min; 8% PAGE, 1x TBE, 4 C
# Isl1D3 = target: T1, Isl1D3; conditions: protein: recombinant; tags: His (C-terminal); (radiolabel, Klenow fill-in); 5' overhang 1 nt at both ends before fill-in
# Isl1 = target: T2, Isl1; conditions: protein: recombinant; tags: His (C-terminal, pET-28a); (radiolabel, Klenow fill-in); 5' overhang 1 nt at both ends before fill-in
# Isl1D5 = target: T3, Isl1D5; conditions: protein: recombinant; tags: His (C-terminal); (radiolabel, Klenow fill-in); 5' overhang 1 nt at both ends before fill-in
# Pou4f2D2 = target: T4, Pou4f2D2; conditions: protein: recombinant; tags: His (C-terminal); (radiolabel, Klenow fill-in); 5' overhang 1 nt at both ends before fill-in
Binder,binding result (Isl1D3),binding result (Isl1),binding result (Isl1D5),binding result (Pou4f2D2)
CBRN3(W) (dsDNA) DNA 1: GATCTCTCCTGCATAATTAATTACCCCCGGAT DNA 2: GATCCGGGGGTAATTAATTATGCAGGAGAGAT,binds,binds,binds,no binding
SBRN3(W) (dsDNA) DNA 1: GCACACGACCCAATGAATTAATAACCGGGCTG DNA 2: GCAGCCCGGTTATTAATTCATTGGGTCGTGTG,binds,binds,binds,no binding
